Data as given in PMC9293779, “Elucidation of binding preferences of YEATS domains to site-specific acetylated nucleosome core particles” (The Journal of Biological Chemistry, 2022).
Ends that are not written are not given here.

T1: AF9-YEATS domain (residues 1–138) for X-ray analysis and ITC (human, UniProt P42568 1-138)
T1 construct: AF9 YEATS domain, human, residues 1–138; cloned in the pCR2.1 vector encoding GST and the polyhistidine tag; source: purified (HisTrap HP, Superdex 200)
T1 sequence (looked up): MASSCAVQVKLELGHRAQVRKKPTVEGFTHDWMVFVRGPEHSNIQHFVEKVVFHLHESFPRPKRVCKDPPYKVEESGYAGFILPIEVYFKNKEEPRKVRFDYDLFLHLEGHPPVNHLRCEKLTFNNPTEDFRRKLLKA

T2: GST-fused AF9-YEATS domain (peptide array) (human, UniProt P42568 1-138)
T2 construct: GST follows the N-terminal polyhistidine tag; source: purified (HisTrap HP, Superdex 200); not shown: GST, N-terminal, kept
T2 sequence (looked up): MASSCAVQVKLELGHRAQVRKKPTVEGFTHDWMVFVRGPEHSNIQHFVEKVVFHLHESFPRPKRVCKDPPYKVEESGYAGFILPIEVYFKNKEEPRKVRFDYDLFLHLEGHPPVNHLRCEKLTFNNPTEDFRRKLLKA

T3: GST-fused ENL-YEATS domain (peptide array) (human, UniProt Q03111 1-138)
T3 construct: GST follows the N-terminal polyhistidine tag; source: purified (HisTrap HP, Superdex 200); not shown: GST, N-terminal, kept
T3 sequence (looked up): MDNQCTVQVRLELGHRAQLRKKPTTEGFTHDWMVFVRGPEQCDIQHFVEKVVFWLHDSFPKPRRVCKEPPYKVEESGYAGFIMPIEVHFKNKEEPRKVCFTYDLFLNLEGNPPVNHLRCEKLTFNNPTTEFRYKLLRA

B1: H4 (1–19) tail peptide tetra-acetylated at K5/K8/K12/K16 (MODified Histone Peptide Array) (peptide, UniProt P62805 2-20, looked up)
peptide: SGRGKGGKGLGKGGAKRHR
modifications: acetyl-lysine at K5, K8, K12 and K16
notes: histone H4, residues 1–19; source: bought: Active Motif MODified Histone Peptide Array
B2: H4 (4–16) K8ac/K12ac peptide (peptide, UniProt P62805 5-17, looked up)
peptide: GKGGK(Ac)GLGK(Ac)GGAK
notes: histone H4, residues 4–16; also called H4K8ac/K12ac peptide; K8/K12-diacetylated H4 peptide
B3: H4 (1–19) tail peptide diacetylated at K5/K8 (MODified Histone Peptide Array) (peptide, UniProt P62805 2-20, looked up)
peptide: SGRGKGGKGLGKGGAKRHR
modifications: acetyl-lysine at K5 and K8
notes: as for B1
B4: H4 (1–12) K5ac/K8ac peptide (peptide, UniProt P62805 2-13, looked up)
peptide: SGRGK(Ac)GGK(Ac)GLGK
notes: histone H4, residues 1–12; also called H4K5ac/K8ac peptide; K5/K8-diacetylated H4 peptide

Tests used:
Conditions in all cases: both partners purified
[1] = molecular target: T1, AF9-YEATS domain (residues 1–138) for …; assay: ITC; protein (100 μM) in the cell, peptide (1 mM) in the syringe; 15 °C; 20 mM Tris-HCl pH 7.6, 500 mM NaCl; single binding site model
[2] = molecular target: T2, GST-fused AF9-YEATS domain (peptide …); assay: peptide or protein array; MODified Histone Peptide Array (Active Motif); 10 μM GST-fused YEATS domain, 4 °C overnight; 50 mM Tris-HCl pH 7.6, 250 mM NaCl, 0.1% NP-40, 10% glycerol; detected with anti-GST
[3] = molecular target: T3, GST-fused ENL-YEATS domain (peptide …); assay: as above
[4] = molecular target: T1, AF9-YEATS domain (residues 1–138) for …; assay: crystal structure; sitting-drop vapor diffusion at 20 °C; AF9-YEATS with diacetylated H4 peptide; space group P1, two AF9-YEATS molecules in the asymmetric unit

Binder	Kd [1] [µM]	binding result [2]	binding result [3]	binding result [4]
ARTKQTARKSTGGKAPRKQ (peptide, UniProt P68431 2-20, looked up, acetyl-lysine at K9 and K14, histone H3, residues 1–19) [K9/K14-diacetylated H3 (1–19) peptide]	8.5			
B1		binds	binds	
B2				binds
B3		binds	binds	
ARTK(Ac)QTARK(Ac)STGGKAPRKQ (peptide, UniProt P68431 2-20, looked up, histone H3, residues 1–19) [K4/K9-diacetylated H3 (1–19) peptide]	5.8			
B4				binds
